{"source": "paper PMC8265312", "key": {"[1]": {"target": "recombinant human GAPDH (human) (UniProt P04406)", "assay": "SPR"}, "[2]": {"target": "endogenous huGAPDH on the surface of dying A549 cells (human (endogenous in A549)) (UniProt P04406)", "assay": "competition of binding to cells, cell-bound PspA detected by immunoblot"}}}
{"substance": "recombinant His-tagged PspA (pneumococcal surface protein A) composed of the αHD and PRD (domain or fragment)", "values": [{"measurement": "Kd", "setting": "[1]", "result": 2950, "unit": "nM"}, {"measurement": "percent reduction of cell-bound PspA by GAPDH70", "setting": "[2]", "result": 50, "unit": "%"}]}
